The record followed here is US20220313819A1 (ARCH ONCOLOGY, published 2022).

Like-named read-outs stand apart in the source and are kept apart here.

Test [1] deals with T1, human CD47 (human, UniProt Q08722 19-292).
T1 construct: also called hCD47; CD47 on OV10 hCD47 cells, human RBCs, Jurkat cells and normal human cells
Briefly: flow cytometry on freshly isolated human RBCs, FITC-labelled donkey anti-human antibody, MFI. The protocol:
FIG. 7. Binding of VLX9 Humanized mAbs to Human RBCs. […] RBCs were incubated for 60 minutes at 37° C. with various concentrations of VLX9 mAbs, washed and incubated for 1 hr with FITC-labelled donkey anti-human antibody. Cells were washed and antibody binding measured using flow cytometry.
(§1) Binding activities of chimeric and humanized VLX4, VLX8, and VLX9 mAbs to human CD47 on hRBCs were also determined using flow cytometry.
For orientation: A flow cytometer gives signals particle by particle.

The target of test [2] is T2, recombinant human His-CD47 (human, UniProt Q08722 19-139).
T2 construct: bought reagent; also called His-tagged human CD47 (Acro Biosystems); not shown: His tag
Briefly: ELISA, adsorbed His-CD47, pH 8. The protocol:
(§2) Binding by soluble anti-CD47 mAbs to immobilized recombinant human CD47 and to human CD47 expressed on cells was measured in vitro. For the in vitro binding to recombinant CD47, His-CD47 (AcroBiosystems) was adsorbed to high-binding microtiter plates overnight at 4° C. The wells were washed and varying concentrations of anti-CD47 mAbs were added to the wells in buffers with a of either pH 6 or pH 8 for 1 hour. The wells were washed and then incubated with HRP-labelled secondary antibody for 1 hour at pH 6 or pH 8 followed by addition of peroxidase substrate. The apparent affinities were calculated using non-linear fit model (Graphpad Prism).

Test [3] concerns the target T1, human CD47. The test can be described thus: flow cytometry, human RBCs. The protocol:
as §1

The target of test [4] is T2, recombinant human His-CD47. The test can be described thus: ELISA, adsorbed His-CD47, pH 6. The protocol:
as §2
Background: In an ELISA, binding on a coated surface is turned into a signal by an enzyme label.

Test [5] deals with T1, human CD47. Briefly: cell ELISA, OV10 hCD47 cells. The protocol:
OV10 hCD47 cells were grown in IMDM medium containing 10% heat inactivated fetal bovine serum (BioWest; S01520). […] Cells were washed, various concentrations of purified antibodies added in IMDM and incubated at 37° C. for 1 hr in […]. Cells were then washed with media and incubated for an additional hour at 37° C. with HRP labelled secondary anti-human antibody (Promega) diluted 1/2500 in media. Cells were washed three times with PBS, and the peroxidase substrate 3,3′, 5,5′-tetramethylbenzidine was added (Sigma; Catalog #T4444). […] The apparent binding affinities of these clones to human OV10 hCD47 cells was determined by non-linear fit (Prism GraphPad software).

The target in test [6] is T1, human CD47. Briefly: flow cytometry on freshly isolated human RBCs, FITC-labelled donkey anti-human antibody, MFI. The protocol:
FIG. 4B. Binding of VLX8 Humanized mAbs to Human RBCs. […] RBCs were incubated for 1 hr at 37° C. with various concentrations of VLX8 mAbs, washed and incubated for 1 hr with FITC-labeled donkey anti-human antibody. Cells were washed and antibody binding measured using flow cytometry.
as §1
This is another data set of the same source.

For test [7], the target named is T1, human CD47. Described as above. The protocol:
FIG. 4A. Binding of VLX8 Humanized mAbs to Human RBCs. […] RBCs were incubated for 1 hr at 37° C. with various concentrations of VLX8 mAbs, washed and incubated for 1 hr with FITC-labeled donkey anti-human antibody. Cells were washed and antibody binding measured using flow cytometry.
as §1
The source holds these as a separate data set.

In general, EC50 (read off the curve) refers to the concentration at which the effect is half-maximal. A word on the Kd: it is a measure of binding affinity in units of concentration.

B1: VLX9 IgG2 (xi) (antibody)
heavy: QVQLQQFGAELAKPGASVQMSCKASGYTFTNYWIHWVKQRPGQGLEWIGYTDPRTDYTEYNQKFKDKATLAADRSSSTAYMRLSSLTSEDSAVYYCAGGGRVGLGYWGHGSSVTVSSASTKGPSVFPLAPCSRSTSESTAALGCLVKDYFPEPVTVSWNSGALTSGVHTFPAVLQSSGLYSLSSVVTVPSSNFGTQTYTCNVDHKPSNTKVDKTVERKCCVECPPCPAPPVAGPSVFLFPPKPKDTLMISRTPEVTCVVVDVSHEDPEVQFNWYVDGVEVHNAKTKPREEQFNSTFRVVSVLTVVHQDWLNGKEYKCKVSNKGLPAPIEKTISKTKGQPREPQVYTLPPSREEMTKNQVSLTCLVKGFYPSDIAVEWESNGQPENNYKTTPPMLDSDGSFFLYSKLTVDKSRWQQGNVFSCSVMHEALHNHYTQKSLSLSPGK
light: DVFMTQTPLSLPVSLGDQASISCRSSQNIVQSNGNTYLEWYLQKPGQSPKLLIYKVFHRFSGVPDRFSGSGSGTDFTLKISRVEAEDLGVYYCFQGSHVPWTFGGGTKVEIKRTVAAPSVFIFPPSDEQLKSGTASVVCLLNNFYPREAKVQWKVDNALQSGNSQESVTEQDSKDSTYSLSSTLTLSKADYEKHKVYACEVTHQGLSSPVTKSFNRGEC
notes: murine-human chimera; also called VLX9 IgG2 chimera
Consider B1, for which the “EC50 (read off the curve)” value in test [1] was about 600 pM. Moreover, the dissociation constant (Kd) in test [2] was found to be 0.137 nM; in test [3] it was 0.742 nM; in test [4], 0.13 nM; in test [5], 0.88 nM.

B2: VLX9 IgG4 PE (xi) (antibody)
heavy: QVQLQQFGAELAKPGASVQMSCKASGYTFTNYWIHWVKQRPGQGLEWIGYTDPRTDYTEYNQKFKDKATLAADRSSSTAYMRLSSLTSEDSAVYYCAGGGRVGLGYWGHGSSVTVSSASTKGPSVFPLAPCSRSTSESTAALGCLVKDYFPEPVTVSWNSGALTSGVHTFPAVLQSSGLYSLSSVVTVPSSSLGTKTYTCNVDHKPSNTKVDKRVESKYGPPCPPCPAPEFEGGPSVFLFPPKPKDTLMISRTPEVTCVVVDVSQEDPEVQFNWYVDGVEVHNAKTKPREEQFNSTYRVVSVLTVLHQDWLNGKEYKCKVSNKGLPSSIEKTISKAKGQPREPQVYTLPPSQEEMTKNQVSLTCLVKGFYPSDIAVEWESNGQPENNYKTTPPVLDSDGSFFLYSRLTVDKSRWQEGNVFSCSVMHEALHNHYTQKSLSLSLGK
light: DVFMTQTPLSLPVSLGDQASISCRSSQNIVQSNGNTYLEWYLQKPGQSPKLLIYKVFHRFSGVPDRFSGSGSGTDFTLKISRVEAEDLGVYYCFQGSHVPWTFGGGTKVEIKRTVAAPSVFIFPPSDEQLKSGTASVVCLLNNFYPREAKVQWKVDNALQSGNSQESVTEQDSKDSTYSLSSTLTLSKADYEKHKVYACEVTHQGLSSPVTKSFNRGEC
notes: murine-human chimera
As for B2, the Kd in test [2] is 0.16 nM; in test [3] it was 0.126 nM; in test [4], 0.133 nM; in test [5], 0.293 nM.

B3: VLX9 IgG1 (xi) (antibody)
heavy: not shown
light: DVFMTQTPLSLPVSLGDQASISCRSSQNIVQSNGNTYLEWYLQKPGQSPKLLIYKVFHRFSGVPDRFSGSGSGTDFTLKISRVEAEDLGVYYCFQGSHVPWTFGGGTKVEIKRTVAAPSVFIFPPSDEQLKSGTASVVCLLNNFYPREAKVQWKVDNALQSGNSQESVTEQDSKDSTYSLSSTLTLSKADYEKHKVYACEVTHQGLSSPVTKSFNRGEC
notes: murine-human chimera
Regarding B3, the results for the Kd in test [3] and in test [5] were 0.381 nM and 0.28 nM, respectively.

B4: VLX9 IgG1 N297Q (xi) (antibody)
heavy: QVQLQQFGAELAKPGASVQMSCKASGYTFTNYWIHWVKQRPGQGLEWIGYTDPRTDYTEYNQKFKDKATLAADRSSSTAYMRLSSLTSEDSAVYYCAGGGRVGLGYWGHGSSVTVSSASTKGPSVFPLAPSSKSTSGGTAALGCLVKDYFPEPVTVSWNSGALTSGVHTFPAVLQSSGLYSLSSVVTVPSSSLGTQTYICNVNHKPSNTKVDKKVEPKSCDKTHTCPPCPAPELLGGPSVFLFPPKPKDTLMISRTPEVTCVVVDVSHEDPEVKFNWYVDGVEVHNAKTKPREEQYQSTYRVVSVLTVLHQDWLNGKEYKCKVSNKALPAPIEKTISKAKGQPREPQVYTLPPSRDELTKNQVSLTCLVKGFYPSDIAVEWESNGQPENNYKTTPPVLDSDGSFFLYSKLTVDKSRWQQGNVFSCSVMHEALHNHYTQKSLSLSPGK
light: DVFMTQTPLSLPVSLGDQASISCRSSQNIVQSNGNTYLEWYLQKPGQSPKLLIYKVFHRFSGVPDRFSGSGSGTDFTLKISRVEAEDLGVYYCFQGSHVPWTFGGGTKVEIKRTVAAPSVFIFPPSDEQLKSGTASVVCLLNNFYPREAKVQWKVDNALQSGNSQESVTEQDSKDSTYSLSSTLTLSKADYEKHKVYACEVTHQGLSSPVTKSFNRGEC
notes: murine-human chimera
Turning to B4, the Kd in test [2] came out at 0.135 nM; in test [3], 0.19 nM; in test [4], 0.099 nM; in test [5], 0.275 nM.

B5: VLX9 IgG (murine) (antibody, V domains shown)
VH: QVQLQQFGAELAKPGASVQMSCKASGYTFTNYWIHWVKQRPGQGLEWIGYTDPRTDYTEYNQKFKDKATLAADRSSSTAYMRLSSLTSEDSAVYYCAGGGRVGLGYWGHGSSVTVSS
VL: DVFMTQTPLSLPVSLGDQASISCRSSQNIVQSNGNTYLEWYLQKPGQSPKLLIYKVFHRFSGVPDRFSGSGSGTDFTLKISRVEAEDLGVYYCFQGSHVPWTFGGGTKVEIK
notes: murine IgG; tied through the names Vx9murH04/Vx9murL04; also called murine VLX9 antibody
Regarding B5, the Kd in test [2] was 0.076 nM; in test [4] it was 0.091 nM.

B6: VLX8hum_08 IgG2 (antibody, V domains shown)
VH: EVQLVQSGAEVKKPGESLKISCKGSGYSFTNYYIHWVRQMPGKGLEWMGYIDPLNGDTTYNQKFKGQVTISADKSISTAYLQWSSLKASDTAMYYCARGGKRAMDYWGQGTLVTVSS
VL: DIQMTQSPSSLSASVGDRVTITCRASQSISNYLNWYQQKPGKAPKLLIYYTSRLYSGVPSRFSGSGSGTDFTLTISSLQPEDFATYYCQQGNTLPWTFGQGTKVEIKR
As for B6, the “EC50 (read off the curve)” value in test [6] is about 700 pM. Also, the equilibrium dissociation constant (Kd) in test [3] came out at 0.82 nM; in test [5] it was 0.464 nM.

B7: VLX8hum_07 IgG2 (antibody, V domains shown)
VH: QVQLVQSGAEVKKPGSSVKVSCKASGYSFTNYYIHWVRQAPGQGLEWMGYIDPLNGDTTYNQKFKGRVTITADESTSTAYMELSSLRSEDTAVYYCARGGKRAMDYWGQGTLVTVSS
VL: DIQMTQSPSSLSASVGDRVTITCRASQSISNYLNWYQQKPGKAPKLLIYYTSRLYSGVPSRFSGSGSGTDFTLTISSLQPEDFATYYCQQGNTLPWTFGQGTKVEIKR
Turning to B7, the Kd was 0.671 nM in test [3] and 0.46 nM in test [5].

B8: VLX8hum_06 IgG2 (antibody, V domains shown)
VH: QVQLVQSGAEVKKPGASVKVSCKASGYSFTNYYIHWVRQAPGQGLEWMGYIDPLNGDTTYNQKFKGRVTMTRDTSTSTVYMELSSLRSEDTAVYYCARGGKRAMDYWGQGTLVTVSS
VL: DIQMTQSPSSLSASVGDRVTITCRASQSISNYLNWYQQKPGKAPKLLIYYTSRLYSGVPSRFSGSGSGTDFTLTISSLQPEDFATYYCQQGNTLPWTFGQGTKVEIKR
On to B8, for which the Kd in test [3] was 0.246 nM; in test [5], 0.403 nM.

B9: VLX8hum_09 IgG2 (antibody, V domains shown)
VH: QVQLVQSGAEVKKPGSSVKVSCKASGYSFTNYYIHWVRQAPGQGLEWMGYIDPLNGDTTYAQKFQGRVTITADESTSTAYMELSSLRSEDTAVYYCARGGKRAMDYWGQGTLVTVSS
VL: DIQMTQSPSSLSASVGDRVTITCRASQSISNYLNWYQQKPGKAPKLLIYYTSRLYSGVPSRFSGSGSGTDFTLTISSLQPEDFATYYCQQGNTLPWTFGQGTKVEIKR
With B9, the results for the Kd in test [3] and in test [5] were 1.74 nM and 0.68 nM, respectively.

B10: VLX4 IgG1 (xi) (antibody)
heavy: not shown
light: DVLMTQTPLSLPVNLGDQASISCRSRQSIVHTNGNTYLGWFLQKPGQSPKLLIYKVSNRFSGVPDRFSGSGSGTDFTLTISRVEAEDLGVYYCFQGSHVPYTFGGGTKLEIKRTVAAPSVFIFPPSDEQLKSGTASVVCLLNNFYPREAKVQWKVDNALQSGNSQESVTEQDSKDSTYSLSSTLTLSKADYEKHKVYACEVTHQGLSSPVTKSFNRGEC
notes: murine-human chimera, human IgG1, human kappa
Regarding B10, the figures for the Kd in test [3] and in test [5] were 0.104 nM and 0.315 nM, respectively.

B11: VLX4 IgG1 N297Q (xi) (antibody)
heavy: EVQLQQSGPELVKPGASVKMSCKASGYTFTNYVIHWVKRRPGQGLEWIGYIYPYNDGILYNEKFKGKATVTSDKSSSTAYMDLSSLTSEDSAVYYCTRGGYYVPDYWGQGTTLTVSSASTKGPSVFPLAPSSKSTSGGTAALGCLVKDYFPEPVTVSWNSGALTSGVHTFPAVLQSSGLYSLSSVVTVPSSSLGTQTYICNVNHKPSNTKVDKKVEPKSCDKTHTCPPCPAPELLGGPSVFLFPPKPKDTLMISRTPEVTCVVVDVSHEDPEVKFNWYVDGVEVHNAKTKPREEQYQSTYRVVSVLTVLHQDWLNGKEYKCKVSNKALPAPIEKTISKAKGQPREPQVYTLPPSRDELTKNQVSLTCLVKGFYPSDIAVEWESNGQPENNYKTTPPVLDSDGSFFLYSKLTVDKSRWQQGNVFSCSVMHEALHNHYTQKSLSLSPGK
light: DVLMTQTPLSLPVNLGDQASISCRSRQSIVHTNGNTYLGWFLQKPGQSPKLLIYKVSNRFSGVPDRFSGSGSGTDFTLTISRVEAEDLGVYYCFQGSHVPYTFGGGTKLEIKRTVAAPSVFIFPPSDEQLKSGTASVVCLLNNFYPREAKVQWKVDNALQSGNSQESVTEQDSKDSTYSLSSTLTLSKADYEKHKVYACEVTHQGLSSPVTKSFNRGEC
notes: murine-human chimera, human IgG1-N297Q, human kappa
With B11, the Kd was 0.092 nM in test [3] and 0.258 nM in test [5].

B12: VLX8 IgG4 PE (xi) (antibody)
heavy: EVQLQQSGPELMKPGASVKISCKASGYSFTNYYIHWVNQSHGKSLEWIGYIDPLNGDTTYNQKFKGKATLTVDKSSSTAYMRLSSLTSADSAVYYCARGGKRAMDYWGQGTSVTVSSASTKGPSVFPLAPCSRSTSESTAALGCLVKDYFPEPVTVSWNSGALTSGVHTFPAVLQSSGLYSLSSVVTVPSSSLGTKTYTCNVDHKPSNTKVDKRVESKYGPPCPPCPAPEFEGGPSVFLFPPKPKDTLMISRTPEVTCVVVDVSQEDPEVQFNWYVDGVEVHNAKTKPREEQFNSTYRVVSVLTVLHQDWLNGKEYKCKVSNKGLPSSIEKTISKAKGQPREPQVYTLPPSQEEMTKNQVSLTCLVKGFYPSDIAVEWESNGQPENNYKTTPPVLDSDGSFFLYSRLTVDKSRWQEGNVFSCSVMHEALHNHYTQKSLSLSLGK
light: DIQMTQTTSSLSASLGDRVTISCRASQDISNYLNWYQQKPDGTVKLLIYYTSRLYSGVPSRFSGSGSGTDYSLTISNLEQEDIATYFCQQGNTLPWTFGGGTKLEIKRTVAAPSVFIFPPSDEQLKSGTASVVCLLNNFYPREAKVQWKVDNALQSGNSQESVTEQDSKDSTYSLSSTLTLSKADYEKHKVYACEVTHQGLSSPVTKSFNRGEC
notes: murine-human chimera; tied through the names Vx8mur-H03/Vx8murL03 full length chains, not by an explicit VLX8 statement; also called VLX8 IgG4PE chimera
As for B12, the equilibrium dissociation constant (Kd) in test [3] was 0.077 nM; in test [5], 0.056 nM. Further, in test [7], the “EC50 (read off the curve)” value is about 200 pM.

B13: VLX8 IgG1 N297Q (xi) (antibody)
heavy: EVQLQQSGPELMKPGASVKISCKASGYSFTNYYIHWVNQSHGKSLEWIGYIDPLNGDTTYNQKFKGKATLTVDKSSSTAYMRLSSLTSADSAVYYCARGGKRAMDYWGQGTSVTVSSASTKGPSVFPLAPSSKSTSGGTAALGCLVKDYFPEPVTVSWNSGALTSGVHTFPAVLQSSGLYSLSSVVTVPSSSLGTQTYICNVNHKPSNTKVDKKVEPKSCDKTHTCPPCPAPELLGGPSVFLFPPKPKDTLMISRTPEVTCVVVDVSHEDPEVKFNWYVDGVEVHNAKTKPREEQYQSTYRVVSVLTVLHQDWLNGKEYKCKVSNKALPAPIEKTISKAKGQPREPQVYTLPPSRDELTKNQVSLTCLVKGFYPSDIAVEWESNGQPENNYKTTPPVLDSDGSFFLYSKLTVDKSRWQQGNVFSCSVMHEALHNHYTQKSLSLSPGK
light: DIQMTQTTSSLSASLGDRVTISCRASQDISNYLNWYQQKPDGTVKLLIYYTSRLYSGVPSRFSGSGSGTDYSLTISNLEQEDIATYFCQQGNTLPWTFGGGTKLEIKRTVAAPSVFIFPPSDEQLKSGTASVVCLLNNFYPREAKVQWKVDNALQSGNSQESVTEQDSKDSTYSLSSTLTLSKADYEKHKVYACEVTHQGLSSPVTKSFNRGEC
notes: murine-human chimera
As to B13, the Kd in test [3] was found to be 0.091 nM; in test [5], 0.042 nM.
